In assay [1] the target is T1, interferon gamma (IFN-γ), murine, recombinant (mouse) (UniProt P01580).
T1 sequence (looked up): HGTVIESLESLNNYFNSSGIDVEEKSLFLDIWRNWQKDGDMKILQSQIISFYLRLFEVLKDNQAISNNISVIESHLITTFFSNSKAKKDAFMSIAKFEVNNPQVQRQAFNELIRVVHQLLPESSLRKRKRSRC
Kind of assay: Octet (BLI) analysis of binding affinity; format not stated.

Assay [2] deals with T1, interferon gamma (IFN-γ), murine, recombinant (mouse). Kind of assay: radioligand cell assay: TUBO cells preincubated with recombinant IFN-γ (10 ng/mL), washed, then incubated with tracer 1 h at 37 C; acid-wash fraction read by gamma counter; background without IFN-γ 1.13 ± 0.28%.
Assay [3] shares this target. Nature of the assay: cell-based or functional assay.

The results in this text go back to patent publication US20230338589A1.

A word on the Kd: it is the free concentration of one partner at which half of the binding sites on the other are occupied at equilibrium, for simple one-to-one binding.

Regarding “anti-IFN-γ diabody (homodimer of the single chain Fv derived from clone AN18, produced in CHO cells)”, the Kd in assay [1] was 37.9 nM.

B1: ^89Zr-anti-IFN-γ labeled-antibody conjugate (AN-18 conjugated to p-SCN-Bn-desferrioxamine and labeled with ^89Zr) (antibody, rat IgG1, V domains shown)
VH: QVQLKESGPGLVQPSQTLSLTCTVSGFSLDSYNVHWVRQPPGKGLEWMGRMKYNGDTSYNSALKSRLRISRDTSKNQVFLKMNSLQTDDTGTYYCTRDWHYGYPSPYFEFWGQGVMVTVSS
VL: DVQMTQSPSYLAASPGESVSISCKASKNINTYLAWYQEKPGKTNKLLIYSGSTLQSGTPSRFSGSGSGTDFTLTIRSLEPEDFAVYYCQQHNEYPLTFGSGTKLEVKR
modifications: p-SCN-Bn-Desferrioxamine (DFO) conjugated to the antibody (Ab:DFO 1:5), chelating ^89Zr; sites not stated
On to B1, for which, in assay [2], the surface binding (% of activity) came out at 13.6%. Further, in assay [3], the internalization (% internalized activity) in TUBO cells preincubated with IFN-γ worked out at 3.93%.
